Measured values taken from patent publication US20080268487.
Where two headings read alike, the source gives them in different places.

Key:
GST-Rab10 (human Rab10) [1] = tested on: T1, GST-Rab10 (human Rab10)
T1 sequence: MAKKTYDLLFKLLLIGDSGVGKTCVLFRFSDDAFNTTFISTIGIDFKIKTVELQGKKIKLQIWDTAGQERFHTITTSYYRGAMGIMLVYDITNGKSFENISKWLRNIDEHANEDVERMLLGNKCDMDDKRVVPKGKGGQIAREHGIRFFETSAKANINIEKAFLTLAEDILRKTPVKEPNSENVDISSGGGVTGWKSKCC

GST-Rab2A [GST: P08515] [2] = tested on: GST-Rab2A [GST: P08515]
GST-Rab8A (dog Rab8A) = GST-Rab8A (dog Rab8A) (UniProt P61007)
GST-Rab8B [GST: P08515] [3] = tested on: GST-Rab8B [GST: P08515]
[4] = biological target: GST-Rab14 (mouse Rab14), Q91V41
GST-Rab14 (mouse Rab14), Q91V41, sequence (Q91V41 whole entry, looked up): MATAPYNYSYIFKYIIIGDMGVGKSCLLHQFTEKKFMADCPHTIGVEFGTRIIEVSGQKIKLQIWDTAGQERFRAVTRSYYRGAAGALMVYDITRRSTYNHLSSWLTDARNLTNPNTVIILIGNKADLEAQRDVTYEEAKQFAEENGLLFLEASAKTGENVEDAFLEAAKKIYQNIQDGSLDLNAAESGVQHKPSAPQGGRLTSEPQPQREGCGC
GST-Rab2A [GST: P08515] [5] = biological target: GST-Rab2A [GST: P08515]; remark: listed apart in the source
[6] = biological target: T2, GST-Rab8A (dog Rab8A), P61007
T2 chain: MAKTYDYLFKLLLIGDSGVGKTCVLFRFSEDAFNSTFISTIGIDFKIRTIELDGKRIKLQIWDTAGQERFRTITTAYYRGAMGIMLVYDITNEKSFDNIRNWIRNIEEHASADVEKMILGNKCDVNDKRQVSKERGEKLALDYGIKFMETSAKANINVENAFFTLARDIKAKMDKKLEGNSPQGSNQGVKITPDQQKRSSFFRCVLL

GST-Rab10 (human Rab10) [7] = biological target: T3, GST-Rab10 (human Rab10)
T3 chain: T1 sequence

GST-Rab8B [GST: P08515] [8] = biological target: GST-Rab8B [GST: P08515]; remark: listed apart in the source

“GST-GAP Arg/Lys (GST-GAP domain with Arg973 mutated to Lys)” was tested. Which “hydrolysis of Rab-bound [α^32P]GTP to GDP (thin layer chromatography)” value (“hydrolysis of Rab-bound [α^32P]GTP” below) (GST-Rab10 (human Rab10) [1]) did it give?
The value was “For each of Rab 2A, 8A, 8B, 10, and 14, the GAP Arg/Lys construct exhibited no significant activity”.

And the “hydrolysis of Rab-bound [α^32P]GTP” value (GST-Rab2A [GST: P08515] [2])?
The value was “For each of Rab 2A, 8A, 8B, 10, and 14, the GAP Arg/Lys construct exhibited no significant activity”.

And the “hydrolysis of Rab-bound [α^32P]GTP” value (GST-Rab8A (dog Rab8A))?
The value was “For each of Rab 2A, 8A, 8B, 10, and 14, the GAP Arg/Lys construct exhibited no significant activity”.

And the “hydrolysis of Rab-bound [α^32P]GTP” value (GST-Rab8B [GST: P08515] [3])?
The value was “For each of Rab 2A, 8A, 8B, 10, and 14, the GAP Arg/Lys construct exhibited no significant activity”.

B1: recombinant full-length FLAG-tagged AS160 (protein)
chain: MEPPSCIQDEPFPHPLEPEPGVSAQPGPGKPSDKRFRLWYVGGSCLDHRTTLPMLPWLMAEIRRRSQKPEAGGCGAPAAREVILVLSAPFLRCVPAPGAGASGGTSPSATQPNPAVFIFEHKAQHISRFIHNSHDLTYFAYLIKAQPDDPESQMACHVFRATDPSQVPDVISSIRQLSKAAMKEDAKPSKDNEDAFYNSQKFEVLYCGKVTVTHKKAPSSLIDDCMEKFSLHEQQRLKIQGEQRGPDPGEDLADLEVVVPGSPGDCLPEEADGTDTHLGLPAGASQPALTSSRVCFPERILEDSGFDEQQEFRSRCSSVTGVQRRVHEGSQKSQPRRRHASAPSHVQPSDSEKNRTMLFQVGRFEINLISPDTKSVVLEKNFKDISSCSQGIKHVDHFGFICRESPEPGLSQYICYVFQCASESLVDEVMLTLKQAFSTAAALQSAKTQIKLCEACPMHSLHKLCERIEGLYPPRAKLVIQRHLSSLTDNEQADIFERVQKMKPVSDQEENELVILHLRQLCEAKQKTHVHIGEGPSTISNSTIPENATSSGRFKLDILKNKAKRSLTSSLENIFSRGANRMRGRLGSVDSFERSNSLASEKDYSPGDSPPGTPPASPPSSAWQTFPEEDSDSPQFRRRAHTFSHPPSSTKRKLNLQDGRAQGVRSPLLRQSSSEQCSNLSSVRRMYKESNSSSSLPSLHTSFSAPSFTAPSFLKSFYQNSGRLSPQYENEIRQDTASESSDGEGRKRTSSTCSNESLSVGGTSVTPRRISWRQRIFLRVASPMNKSPSAMQQQDGLDRNELLPLSPLSPTMEEEPLVIFLSGEDDPEKIEERKKSKELRSLWRKAIHQQILLLRMEKENQKLEGASRDELQSRKVKLDYEEVGACQKEVLITWDKKLLNCRAKIRCDMEDIHTLLKEGVPKSRRGEIWQFLALQYRLRHRLPNKQQPPDISYKELLKQLTAQQHAILVDLGRTFPTHPYFSVQLGPGQLSLFNLLKAYSLLDKEVGYCQGISFVAGVLLLHMSEEQAFEMLKFLMYDLGFRKQYRPDMMSLQIQMYQLSRLLHDYHRDLYNHLEENEISPSLYAAPWFLTLFASQFSLGFVARVFDIIFLQGTEVIFKVALSLLSSQETLIMECESFENIVEFLKNTLPDMNTSEMEKIITQVFEMDISKQLHAYEVEYHVLQDELQESSYSCEDSETLEKLERANSQLKRQNMDLLEKLQVAHTKIQALESNLENLLTRETKMKSLIRTLEQEKMAYQKTVEQLRKLLPADALANCDLLLRDLNCNPNNKAKIGNKP
For B1, which “GAP assay with protein attached to anti-FLAG beads” value (“GAP assay with protein attached” below) [4] is on record?
The value was “The full-length AS160 exhibited no significant activity above that of the Arg973Lys mutant with Rabs 2A, 8A, and 14 as substrates”.

What about the “GAP assay with protein attached” value (GST-Rab2A [GST: P08515] [5]) of the same molecule?
The value was “The full-length AS160 exhibited no significant activity above that of the Arg973Lys mutant with Rabs 2A, 8A, and 14 as substrates”.

What about the “GAP assay with protein attached” value [6] of the same molecule?
Its value is “The full-length AS160 exhibited no significant activity above that of the Arg973Lys mutant with Rabs 2A, 8A, and 14 as substrates”.

B2: AS160 GAP domain-GST fusion protein (protein)
chain: GASRDELQSRKVKLDYEEVGACQKEVLITWDKKLLNCRAKIRCDMEDIHTLLKEGVPKSRRGEIWQFLALQYRLRHRLPNKQQPPDISYKELLKQLTAQQHAILVDLGRTFPTHPYFSVQLGPGQLSLFNLLKAYSLLDKEVGYCQGISFVAGVLLLHMSEEQAFEMLKFLMYDLGFRKQYRPDMMSLQIQMYQLSRLLHDYHRDLYNHLEENEISPSLYAAPWFLTLFASQFSLGFVARVFDIIFLQGTEVIFKVALSLLSSQETLIMECESFENIVEFLKNTLPDMNTSEMEKIITQVFEMDISKQLHAYEVEYHVLQDELQESSYSCEDSETLEKLERANSQLKRQNMDLLEKLQVAHTKIQALESNLENLLTRETKMKSLIRTLEQEKMAYQKTVEQLRKLLPADALANCDLLLRDLNCNPNNKAKIGNKP
Which results are given for B2?
hydrolysis of Rab-bound [α^32P]GTP to GDP (thin layer chromatography) (GST-Rab10 (human Rab10) [7]): the GAP domain markedly stimulated the hydrolysis of [α^32P]GTP bound to Rabs 2A, 8A, 8B, 10, and 14; GAP activity in the presence of a 10-fold molar excess of GST as carrier protein [4]: the presence of excess GST did not inhibit the GAP activity; GAP assay with GST-GAP domain attached to glutathione beads [4]: the same molar amount of the GST-GAP domain attached to glutathione beads showed the expected activity against Rab14; hydrolysis of Rab-bound [α^32P]GTP to GDP (thin layer chromatography) [4]: the GAP domain markedly stimulated the hydrolysis of [α^32P]GTP bound to Rabs 2A, 8A, 8B, 10, and 14; kcat/Km [4]: a kcat/Km value of 0.2 min^-1 µmolar^-1; rate of hydrolysis of the bound [α^32P]GTP with 130 nM GST-GAP domain [4]: approximately 3% per minute with 130 nM GST-GAP domain; hydrolysis of Rab-bound [α^32P]GTP to GDP (thin layer chromatography) (GST-Rab2A [GST: P08515] [5]): the GAP domain markedly stimulated the hydrolysis of [α^32P]GTP bound to Rabs 2A, 8A, 8B, 10, and 14; hydrolysis of Rab-bound [α^32P]GTP to GDP (thin layer chromatography) [6]: the GAP domain markedly stimulated the hydrolysis of [α^32P]GTP bound to Rabs 2A, 8A, 8B, 10, and 14; hydrolysis of Rab-bound [α^32P]GTP to GDP (thin layer chromatography) (GST-Rab8B [GST: P08515] [8]): the GAP domain markedly stimulated the hydrolysis of [α^32P]GTP bound to Rabs 2A, 8A, 8B, 10, and 14

B3: recombinant GAP domain without GST (protein)
chain: B2 chain
With B3 as the molecule, how does the “GAP activity compared with that of GST-GAP domain” value [4] read?
Its value is “no difference was observed”.
